Data reported in the Human Domainome abundance scans (Beltran et al. 2025).
± gives the uncertainty stated by the source.

B1: Far upstream element-binding protein 2, residues 142 to 214; numbered along this chain, Q92945 (parent)
chain: RTSMTEEYRVPDGMVGLIIGRGGEQINKIQQDSGCKVQISPDSGGLPERSVSLTGAPESVQKAKMMLDDIVSR

Variants of: B1
Test: abundance fitness (aPCA) (normalised: wild type 0, dead -1); higher = more abundant; growth selection in yeast, the domain comes from the species named
Details: Homo sapiens
For RTSMTEEYRVPDGMVGLIIGRGGEQINKIQQDSGCKVQISPDSGGLPERSVSLTGAPVSVQKAKMMLDDIVSR [E58V], the abundance fitness was -0.209 ± 0.051. For RTSMTEEYRVPDGMVGLIIGRGGEQINKIQQDSGCKVQISPDSGGLPERSVSLTGAPWSVQKAKMMLDDIVSR [E58W], the abundance fitness was -0.335 ± 0.053. RTSMTEEYRVPDGMVGLIIGRGGEQINKIQQDSGCKVQISPDSGGLPERSVSLTGAPYSVQKAKMMLDDIVSR [E58Y] showed an abundance fitness of -0.203 ± 0.1. Work on RTSMTEEYRVPDGMVGLIIGRGGEQINKIQQDSGCKVQISPDSGGLPERSVSLTGAPEAVQKAKMMLDDIVSR [S59A] yielded an abundance fitness of 0.008 ± 0.043. In the case of RTSMTEEYRVPDGMVGLIIGRGGEQINKIQQDSGCKVQISPDSGGLPERSVSLTGAPECVQKAKMMLDDIVSR [S59C], the abundance fitness is reported as -0.063 ± 0.057. Variant RTSMTEEYRVPDGMVGLIIGRGGEQINKIQQDSGCKVQISPDSGGLPERSVSLTGAPEDVQKAKMMLDDIVSR [S59D] has an abundance fitness of 0.003 ± 0.06. Variant RTSMTEEYRVPDGMVGLIIGRGGEQINKIQQDSGCKVQISPDSGGLPERSVSLTGAPEFVQKAKMMLDDIVSR [S59F] has an abundance fitness of -0.528 ± 0.1. Work on RTSMTEEYRVPDGMVGLIIGRGGEQINKIQQDSGCKVQISPDSGGLPERSVSLTGAPEGVQKAKMMLDDIVSR [S59G] yielded an abundance fitness of -0.149 ± 0.039. With RTSMTEEYRVPDGMVGLIIGRGGEQINKIQQDSGCKVQISPDSGGLPERSVSLTGAPEHVQKAKMMLDDIVSR [S59H] the abundance fitness was -0.081 ± 0.063. Variant RTSMTEEYRVPDGMVGLIIGRGGEQINKIQQDSGCKVQISPDSGGLPERSVSLTGAPEIVQKAKMMLDDIVSR [S59I] has an abundance fitness of -0.848 ± 0.12. Variant RTSMTEEYRVPDGMVGLIIGRGGEQINKIQQDSGCKVQISPDSGGLPERSVSLTGAPEKVQKAKMMLDDIVSR [S59K] has an abundance fitness of -0.216 ± 0.068. RTSMTEEYRVPDGMVGLIIGRGGEQINKIQQDSGCKVQISPDSGGLPERSVSLTGAPELVQKAKMMLDDIVSR [S59L] gave an abundance fitness of -0.619 ± 0.049. For RTSMTEEYRVPDGMVGLIIGRGGEQINKIQQDSGCKVQISPDSGGLPERSVSLTGAPEMVQKAKMMLDDIVSR [S59M], the abundance fitness was -0.206 ± 0.054. Variant RTSMTEEYRVPDGMVGLIIGRGGEQINKIQQDSGCKVQISPDSGGLPERSVSLTGAPENVQKAKMMLDDIVSR [S59N] has an abundance fitness of -0.062 ± 0.097. Variant RTSMTEEYRVPDGMVGLIIGRGGEQINKIQQDSGCKVQISPDSGGLPERSVSLTGAPEPVQKAKMMLDDIVSR [S59P] has an abundance fitness of -0.769 ± 0.058. In the case of RTSMTEEYRVPDGMVGLIIGRGGEQINKIQQDSGCKVQISPDSGGLPERSVSLTGAPEQVQKAKMMLDDIVSR [S59Q], the abundance fitness is reported as -0.037 ± 0.051. For RTSMTEEYRVPDGMVGLIIGRGGEQINKIQQDSGCKVQISPDSGGLPERSVSLTGAPERVQKAKMMLDDIVSR [S59R], the abundance fitness was -0.373 ± 0.039. With RTSMTEEYRVPDGMVGLIIGRGGEQINKIQQDSGCKVQISPDSGGLPERSVSLTGAPEVVQKAKMMLDDIVSR [S59V] the abundance fitness was -0.326 ± 0.046. Variant RTSMTEEYRVPDGMVGLIIGRGGEQINKIQQDSGCKVQISPDSGGLPERSVSLTGAPEWVQKAKMMLDDIVSR [S59W] has an abundance fitness of -0.968 ± 0.084. In the case of RTSMTEEYRVPDGMVGLIIGRGGEQINKIQQDSGCKVQISPDSGGLPERSVSLTGAPEYVQKAKMMLDDIVSR [S59Y], the abundance fitness is reported as -0.727 ± 0.092. Work on RTSMTEEYRVPDGMVGLIIGRGGEQINKIQQDSGCKVQISPDSGGLPERSVSLTGAPESAQKAKMMLDDIVSR [V60A] yielded an abundance fitness of -0.689 ± 0.05. RTSMTEEYRVPDGMVGLIIGRGGEQINKIQQDSGCKVQISPDSGGLPERSVSLTGAPESCQKAKMMLDDIVSR [V60C] showed an abundance fitness of -0.355 ± 0.079. For RTSMTEEYRVPDGMVGLIIGRGGEQINKIQQDSGCKVQISPDSGGLPERSVSLTGAPESDQKAKMMLDDIVSR [V60D], the abundance fitness was -0.789 ± 0.089. Work on RTSMTEEYRVPDGMVGLIIGRGGEQINKIQQDSGCKVQISPDSGGLPERSVSLTGAPESEQKAKMMLDDIVSR [V60E] yielded an abundance fitness of -0.773 ± 0.068. RTSMTEEYRVPDGMVGLIIGRGGEQINKIQQDSGCKVQISPDSGGLPERSVSLTGAPESFQKAKMMLDDIVSR [V60F] gave an abundance fitness of -0.82 ± 0.12. With RTSMTEEYRVPDGMVGLIIGRGGEQINKIQQDSGCKVQISPDSGGLPERSVSLTGAPESGQKAKMMLDDIVSR [V60G] the abundance fitness was -0.745 ± 0.044. In the case of RTSMTEEYRVPDGMVGLIIGRGGEQINKIQQDSGCKVQISPDSGGLPERSVSLTGAPESHQKAKMMLDDIVSR [V60H], the abundance fitness is reported as -0.727 ± 0.11. In the case of RTSMTEEYRVPDGMVGLIIGRGGEQINKIQQDSGCKVQISPDSGGLPERSVSLTGAPESIQKAKMMLDDIVSR [V60I], the abundance fitness is reported as 0.119 ± 0.073. For RTSMTEEYRVPDGMVGLIIGRGGEQINKIQQDSGCKVQISPDSGGLPERSVSLTGAPESKQKAKMMLDDIVSR [V60K], the abundance fitness was -0.377 ± 0.069. For RTSMTEEYRVPDGMVGLIIGRGGEQINKIQQDSGCKVQISPDSGGLPERSVSLTGAPESLQKAKMMLDDIVSR [V60L], the abundance fitness was -0.191 ± 0.047. Variant RTSMTEEYRVPDGMVGLIIGRGGEQINKIQQDSGCKVQISPDSGGLPERSVSLTGAPESMQKAKMMLDDIVSR [V60M] has an abundance fitness of -0.265 ± 0.067. For RTSMTEEYRVPDGMVGLIIGRGGEQINKIQQDSGCKVQISPDSGGLPERSVSLTGAPESNQKAKMMLDDIVSR [V60N], the abundance fitness was -0.636 ± 0.1. For RTSMTEEYRVPDGMVGLIIGRGGEQINKIQQDSGCKVQISPDSGGLPERSVSLTGAPESQQKAKMMLDDIVSR [V60Q], the abundance fitness was -0.586 ± 0.065. Work on RTSMTEEYRVPDGMVGLIIGRGGEQINKIQQDSGCKVQISPDSGGLPERSVSLTGAPESRQKAKMMLDDIVSR [V60R] yielded an abundance fitness of -0.016 ± 0.037. Work on RTSMTEEYRVPDGMVGLIIGRGGEQINKIQQDSGCKVQISPDSGGLPERSVSLTGAPESSQKAKMMLDDIVSR [V60S] yielded an abundance fitness of -0.741 ± 0.06. Variant RTSMTEEYRVPDGMVGLIIGRGGEQINKIQQDSGCKVQISPDSGGLPERSVSLTGAPESWQKAKMMLDDIVSR [V60W] has an abundance fitness of -1.26 ± 0.089. RTSMTEEYRVPDGMVGLIIGRGGEQINKIQQDSGCKVQISPDSGGLPERSVSLTGAPESYQKAKMMLDDIVSR [V60Y] showed an abundance fitness of -0.763 ± 0.18.
